Reference: patent publication US20250382726A1

Key:
[1] = target: recombinant HER2 (Acro Biosystems; P/N. H5225) (UniProt P04626); assay: BLI (Octet), IgG captured on anti-human Fc biosensors, HER2 5-0.078 nM in solution, 37 C, 1:1 global fit, mean of duplicates
[2] = target: recombinant Cathepsin S protein (UniProt P25774); assay: BLI (Octet), captured IgG, Cathepsin S 200 ng/ml, 25 C; Run 1; Affinity to be determined
[3] = target: recombinant Cathepsin S protein (UniProt P25774); assay: BLI (Octet), IgG captured on anti-human biosensors, 200 ng/ml recombinant Cathepsin S, 25 C
[4] = target: recombinant Cathepsin S protein (UniProt P25774); assay: BLI (Octet), captured IgG, Cathepsin S 200 ng/ml, 25 C; Run 1, first Fsn0503h control row
[5] = target: recombinant Cathepsin S protein (UniProt P25774); assay: BLI (Octet), captured IgG, Cathepsin S 200 ng/ml, 25 C; Run 2, Fsn0503h control
[6] = target: recombinant Cathepsin S protein (UniProt P25774); assay: BLI (Octet), captured IgG, Cathepsin S 200 ng/ml, 25 C; Run 1, Fsn0503h control
[7] = target: recombinant Cathepsin S protein (UniProt P25774); assay: BLI (Octet), captured IgG, Cathepsin S 200 ng/ml, 25 C; Run 2, second Fsn0503h control row

Molecule: Wild-Type (antibody having sequence of trastuzumab, transiently expressed in parallel with the variants)
- Kd [1]: 0.126 nM

Molecule: WT (antibody)
- Kd [2]: < 0.001 nM
- koff [2]: < 1e-07 s⁻¹
- kon [2]: 45100 M⁻¹ s⁻¹

B1: Fsn0503h, humanised anti-Cathepsin S antibody (Fusion Antibodies) (antibody, V domains shown)
VH: EVQLVESGGGLVKPGGSLRLSCAASGFAFSSYDMSWVRQAPGKGLEWVAYITTGGVNTYYPDTVKGRFTISRDNAKNTLYLQMSSLKSEDTAVYYCARHSYFDYWGQGTTVTVSS
VL: DVVMTQSPLSLPVTLGQPASISCRSSQSLVHSNGNTYLHWYLQKPGQSPQLLIYKVSNRFSGVPDRFSGSGSGTDFTLKISRVEAEDVGVYYCSQTTHVPPTFGQGTKLEIK
- Kd [3]: 4.45 nM
- Kd [4]: 3.05 nM
- koff [4]: 0.000121 s⁻¹
- kon [4]: 39600 M⁻¹ s⁻¹
- Kd [5]: 4.39 nM
- koff [5]: 0.000188 s⁻¹
- kon [5]: 42800 M⁻¹ s⁻¹
- Kd [6]: 5.47 nM
- koff [6]: 0.000144 s⁻¹
- kon [6]: 26200 M⁻¹ s⁻¹
- Kd [7]: 5.11 nM
- koff [7]: 0.000242 s⁻¹
